We go through two molecules from article PMC6568178 (Theranostics, 2019).

One data set has as its target T1, FOXM1 full-length (UniProt Q08050-2 1-748).
T1 sequence: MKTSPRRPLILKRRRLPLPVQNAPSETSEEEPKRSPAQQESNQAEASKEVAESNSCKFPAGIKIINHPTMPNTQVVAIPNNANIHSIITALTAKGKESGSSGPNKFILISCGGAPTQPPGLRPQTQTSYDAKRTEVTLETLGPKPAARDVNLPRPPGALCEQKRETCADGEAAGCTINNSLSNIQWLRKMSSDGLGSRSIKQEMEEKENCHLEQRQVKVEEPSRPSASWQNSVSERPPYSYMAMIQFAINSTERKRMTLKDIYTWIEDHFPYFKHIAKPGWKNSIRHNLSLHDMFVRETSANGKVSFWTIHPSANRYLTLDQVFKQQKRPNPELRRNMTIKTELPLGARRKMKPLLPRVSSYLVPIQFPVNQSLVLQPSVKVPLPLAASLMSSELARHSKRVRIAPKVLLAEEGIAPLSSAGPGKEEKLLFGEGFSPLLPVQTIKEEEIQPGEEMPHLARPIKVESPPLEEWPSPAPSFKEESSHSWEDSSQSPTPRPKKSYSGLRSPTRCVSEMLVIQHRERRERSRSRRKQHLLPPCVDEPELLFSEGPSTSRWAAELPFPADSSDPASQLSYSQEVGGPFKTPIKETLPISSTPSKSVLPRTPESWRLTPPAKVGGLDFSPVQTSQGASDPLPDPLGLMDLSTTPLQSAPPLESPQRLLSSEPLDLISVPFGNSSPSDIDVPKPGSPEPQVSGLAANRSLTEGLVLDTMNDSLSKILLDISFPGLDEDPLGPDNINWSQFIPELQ
As to the kind of experiment: EMSA.

Data set [1] concerns the target T2, FOXM1 full-length;M1-138 (6xHis-FOXM1(1-138)-R9) (human?;human?, UniProt Q08050-2;Q08050-2 1-748;1-138, |).
T2 sequence 1: T1 sequence
T2 sequence 2: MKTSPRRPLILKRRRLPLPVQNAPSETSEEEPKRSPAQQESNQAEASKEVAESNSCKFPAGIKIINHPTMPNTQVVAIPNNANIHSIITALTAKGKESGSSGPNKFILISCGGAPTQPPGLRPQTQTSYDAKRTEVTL
The experiment in a line: EMSA.

The target in the next data set is T3, FOXM1 (endogenous) (human (endogenous in MDA-MB-231 and …, UniProt Q08050 1-763)).
T3 sequence: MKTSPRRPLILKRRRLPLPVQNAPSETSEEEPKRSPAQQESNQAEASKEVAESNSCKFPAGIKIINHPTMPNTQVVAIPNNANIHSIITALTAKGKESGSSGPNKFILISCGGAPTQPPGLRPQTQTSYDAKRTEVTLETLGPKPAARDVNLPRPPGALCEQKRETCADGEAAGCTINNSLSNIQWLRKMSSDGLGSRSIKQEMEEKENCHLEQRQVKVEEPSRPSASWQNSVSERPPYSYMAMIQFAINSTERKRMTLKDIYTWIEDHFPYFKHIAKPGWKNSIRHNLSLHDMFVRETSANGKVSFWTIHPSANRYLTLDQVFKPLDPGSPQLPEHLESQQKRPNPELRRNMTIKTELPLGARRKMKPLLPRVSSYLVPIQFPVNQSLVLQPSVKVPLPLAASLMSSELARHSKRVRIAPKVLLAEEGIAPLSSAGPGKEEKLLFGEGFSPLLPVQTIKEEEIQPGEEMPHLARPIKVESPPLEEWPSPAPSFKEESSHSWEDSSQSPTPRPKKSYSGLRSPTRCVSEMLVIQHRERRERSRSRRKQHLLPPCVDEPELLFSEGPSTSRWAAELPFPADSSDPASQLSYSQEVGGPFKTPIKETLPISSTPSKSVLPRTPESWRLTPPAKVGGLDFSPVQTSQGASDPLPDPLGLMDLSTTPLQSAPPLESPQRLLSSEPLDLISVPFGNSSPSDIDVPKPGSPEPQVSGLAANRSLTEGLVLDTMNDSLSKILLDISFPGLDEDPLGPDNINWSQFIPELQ
As to the kind of experiment: cell-based or functional assay.

B1: FAM-labeled FOXM1 dsDNA probe (Hot) (dsDNA)
DNA 1: TTTGTTTATTTGTTTGTTTATTTG
DNA 2: CAAATAAACAAACAAATAAACAAA
For B1, the binding result (with FOXM1 full-length; in data set [1]) was “binds” throughout.

B2: M1-138 (recombinant FOXM1 N-terminal domain (1-138aa) fused with a nine arginine cell-penetrating peptide) (domain or fragment)
chain: MKTSPRRPLILKRRRLPLPVQNAPSETSEEEPKRSPAQQESNQAEASKEVAESNSCKFPAGIKIINHPTMPNTQVVAIPNNANIHSIITALTAKGKESGSSGPNKFILISCGGAPTQPPGLRPQTQTSYDAKRTEVTLRRRRRRRRR
On to B2, for which, in the data set with FOXM1 (endogenous), the “IC50 of cell viability (CCK-8), A549 cells, 12 h treatment” value is 5.3 µM; the “IC50 of cell viability (CCK-8), Hela cells, 12 h treatment” value worked out at 8.9 µM; the “IC50 of cell viability (CCK-8), HepG2 cells, 12 h treatment” value was 13.8 µM; the “IC50 of cell viability (CCK-8), MCF-7 cells, 12 h treatment” value worked out at 17.9 µM. In addition, in the data set with FOXM1 (endogenous), the “IC50 of cell viability (CCK-8), MDA-MB-231 cells, 12 h treatment” value was 7.8 µM.
